Laboratory results: patent US20180155451A1 (published 2018)

B1: GpH7-A5/GpH7-B3 variant I332_12R/GpL16-k0 (antibody, human IgG1, kappa)
heavy 1: not shown
heavy 2: not shown
light: DIVMTQSPLSLPVTPGEPASISCQASESLVHSNRNTYLHWYLQKPGQSPQLLIYKVSNRFSGVPDRFSGSGSGTDFTLKISRVEAEDVGVYYCSQNTHVPPTFGQGTKVEIERTVAAPSVFIFPPSDEQLKSGTASVVCLLNNFYPREAKVQWKVDNALQSGNSQESVTEQDSKDSTYSLSSTLTLSKADYEKHKVYACEVTHQGLSSPVTKSFNRGEC
notes: heterodimerized; also called He Ab I332_12R
B2: GpH7-A5/GpH7-B3 variant L234_03V/GpL16-k0 (antibody, human IgG1, kappa)
heavy 1: not shown
heavy 2: not shown
light: B1 light
notes: heterodimerized; also called He Ab L234_03V
B3: GpH7-A5/GpH7-B3 variant E333_15Y/GpL16-k0 (antibody, human IgG1, kappa)
heavy 1: not shown
heavy 2: not shown
light: B1 light
notes: heterodimerized; also called He Ab E333_15Y
B4: GpH7-A5/GpH7-B3 variant I336_04F/GpL16-k0 (antibody, human IgG1, kappa)
heavy 1: not shown
heavy 2: not shown
light: B1 light
notes: heterodimerized; also called He Ab I336_04F
B5: GpH7-A5/GpH7-B3 variant H268_07I/GpL16-k0 (antibody, human IgG1, kappa)
heavy 1: not shown
heavy 2: not shown
light: B1 light
notes: heterodimerized; also called He Ab H268_07I
B6: GpH7-A5/GpH7-B3 variant P238_03V/GpL16-k0 (antibody, human IgG1, kappa)
heavy 1: not shown
heavy 2: not shown
light: B1 light
notes: heterodimerized; also called He Ab P238_03V
B7: GpH7-A5/GpH7-B3 variant L328_14T/GpL16-k0 (antibody, human IgG1, kappa)
heavy 1: not shown
heavy 2: not shown
light: B1 light
notes: heterodimerized; also called He Ab L328_14T
B8: GpH7-A5/GpH7-B3 variant L234_10E/GpL16-k0 (antibody, human IgG1, kappa)
heavy 1: not shown
heavy 2: not shown
light: B1 light
notes: heterodimerized; also called He Ab L234_10E; GpH7-A5/GpH7-B16/GpL16-k0
B9: GpH7-A5/GpH7-B3 variant P238_10E/GpL16-k0 (antibody, human IgG1, kappa)
heavy 1: not shown
heavy 2: not shown
light: B1 light
notes: heterodimerized; also called He Ab P238_10E
B10: GpH7-A5/GpH7-B3 variant L328_10E/GpL16-k0 (antibody, human IgG1, kappa)
heavy 1: not shown
heavy 2: not shown
light: B1 light
notes: heterodimerized; also called He Ab L328_10E
B11: GpH7-A5/GpH7-B3 variant E333_08L/GpL16-k0 (antibody, human IgG1, kappa)
heavy 1: not shown
heavy 2: not shown
light: B1 light
notes: heterodimerized; also called He Ab E333_08L
B12: GpH7-A5/GpH7-B3 variant K326_15Y/GpL16-k0 (antibody, human IgG1, kappa)
heavy 1: not shown
heavy 2: not shown
light: B1 light
notes: heterodimerized; also called He Ab K326_15Y
B13: GpH7-A5/GpH7-B3 variant L234_04F/GpL16-k0 (antibody, human IgG1, kappa)
heavy 1: not shown
heavy 2: not shown
light: B1 light
notes: heterodimerized; also called He Ab L234_04F
B14: GpH7-A5/GpH7-B3 variant H268_14T/GpL16-k0 (antibody, human IgG1, kappa)
heavy 1: not shown
heavy 2: not shown
light: B1 light
notes: heterodimerized; also called He Ab H268_14T
B15: GpH7-A5/GpH7-B3 variant E333_09D/GpL16-k0 (antibody, human IgG1, kappa)
heavy 1: not shown
heavy 2: not shown
light: B1 light
notes: heterodimerized; also called He Ab E333_09D
B16: GpH7-A5/GpH7-B3 variant H268_05P/GpL16-k0 (antibody, human IgG1, kappa)
heavy 1: not shown
heavy 2: not shown
light: B1 light
notes: heterodimerized; also called He Ab H268_05P
B17: GpH7-A5/GpH7-B3 variant L234_06M/GpL16-k0 (antibody, human IgG1, kappa)
heavy 1: not shown
heavy 2: not shown
light: B1 light
notes: heterodimerized; also called He Ab L234_06M
B18: GpH7-A5/GpH7-B3 variant I336_10E/GpL16-k0 (antibody, human IgG1, kappa)
heavy 1: not shown
heavy 2: not shown
light: B1 light
notes: heterodimerized; also called He Ab I336_10E
B19: GpH7-A5/GpH7-B3 variant L328_19Q/GpL16-k0 (antibody, human IgG1, kappa)
heavy 1: not shown
heavy 2: not shown
light: B1 light
notes: heterodimerized; also called He Ab L328_19Q
B20: GpH7-A5/GpH7-B3 variant I336_03V/GpL16-k0 (antibody, human IgG1, kappa)
heavy 1: not shown
heavy 2: not shown
light: B1 light
notes: heterodimerized; also called He Ab I336_03V
B21: GpH7-A5/GpH7-B3 variant P238_04F/GpL16-k0 (antibody, human IgG1, kappa)
heavy 1: not shown
heavy 2: not shown
light: B1 light
notes: heterodimerized; also called He Ab P238_04F
B22: GpH7-A5/GpH7-B3 variant E333_07I/GpL16-k0 (antibody, human IgG1, kappa)
heavy 1: not shown
heavy 2: not shown
light: B1 light
notes: heterodimerized; also called He Ab E333_07I
B23: GpH7-A5/GpH7-B3 variant E333_16H/GpL16-k0 (antibody, human IgG1, kappa)
heavy 1: not shown
heavy 2: not shown
light: B1 light
notes: heterodimerized; also called He Ab E333_16H
B24: GpH7-A5/GpH7-B3 variant E333_02A/GpL16-k0 (antibody, human IgG1, kappa)
heavy 1: not shown
heavy 2: not shown
light: B1 light
notes: heterodimerized; also called He Ab E333_02A
B25: GpH7-A5/GpH7-B3 variant H268_02A/GpL16-k0 (antibody, human IgG1, kappa)
heavy 1: not shown
heavy 2: not shown
light: B1 light
notes: heterodimerized; also called He Ab H268_02A
B26: GpH7-A5/GpH7-B3 variant I336_01G/GpL16-k0 (antibody, human IgG1, kappa)
heavy 1: not shown
heavy 2: not shown
light: B1 light
notes: heterodimerized; also called He Ab I336_01G
B27: GpH7-A5/GpH7-B3 variant K326_12R/GpL16-k0 (antibody, human IgG1, kappa)
heavy 1: not shown
heavy 2: not shown
light: B1 light
notes: heterodimerized; also called He Ab K326_12R
B28: GpH7-A5/GpH7-B3 variant K326_14T/GpL16-k0 (antibody, human IgG1, kappa)
heavy 1: not shown
heavy 2: not shown
light: B1 light
notes: heterodimerized; also called He Ab K326_14T
B29: GpH7-A5/GpH7-B3 variant E333_05P/GpL16-k0 (antibody, human IgG1, kappa)
heavy 1: not shown
heavy 2: not shown
light: B1 light
notes: heterodimerized; also called He Ab E333_05P
B30: GpH7-A5/GpH7-B3 variant K326_18N/GpL16-k0 (antibody, human IgG1, kappa)
heavy 1: not shown
heavy 2: not shown
light: B1 light
notes: heterodimerized; also called He Ab K326_18N
B31: GpH7-A5/GpH7-B3 variant P238_08L/GpL16-k0 (antibody, human IgG1, kappa)
heavy 1: not shown
heavy 2: not shown
light: B1 light
notes: heterodimerized; also called He Ab P238_08L

molecular target: T1, FcγRIa (human, UniProt P12314 16-292); experiment: SPR; vs GpH7-A5/GpH7-B3/GpL16-k0=100
T1 construct: extracellular domain; also called FcgRI; CD64
T1 sequence (P12314 16-292): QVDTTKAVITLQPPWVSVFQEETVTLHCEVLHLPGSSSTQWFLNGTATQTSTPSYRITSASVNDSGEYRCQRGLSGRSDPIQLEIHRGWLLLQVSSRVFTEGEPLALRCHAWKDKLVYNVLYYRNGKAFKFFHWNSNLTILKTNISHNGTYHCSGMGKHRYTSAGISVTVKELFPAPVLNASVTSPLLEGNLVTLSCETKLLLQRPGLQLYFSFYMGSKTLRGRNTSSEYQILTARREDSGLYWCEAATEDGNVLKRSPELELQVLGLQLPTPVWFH

| He/Con_1a | Binder |
| --- | --- |
| 100 % of control | B1 |
| 104 % of control | B2 |
| 101 % of control | B3 |
| 106 % of control | B4 |
| 108 % of control | B5 |
| 100 % of control | B6 |
| 100 % of control | B7 |
| 100 % of control | B8 |
| 102 % of control | B9 |
| 101 % of control | B10 |
| 102 % of control | B11 |
| 106 % of control | B12 |
| 101 % of control | B13 |
| 112 % of control | B14 |
| 104 % of control | B15 |
| 109 % of control | B16 |

| He/Con_1a | Binder |
| --- | --- |
| 104 % of control | B17 |
| 108 % of control | B18 |
| 101 % of control | B19 |
| 105 % of control | B20 |
| 101 % of control | B21 |
| 102 % of control | B22 |
| 101 % of control | B23 |
| 103 % of control | B24 |
| 109 % of control | B25 |
| 109 % of control | B26 |
| 100 % of control | B27 |
| 104 % of control | B28 |
| 102 % of control | B29 |
| 105 % of control | B30 |
| 101 % of control | B31 |
